Among the data in patent US5998154 are Precipitated Complex (cpm), PEG and percent of specifically bound ligand dissociated values, retold here.

Values joined by “and” are separate entries in the source; they are usually repeats but may differ in a detail not shown here. Equal values may be shown once. Read-outs that look alike come from different tables or passages of the source.

Experiment [1] concerns the target rat sst1 receptor (expressed in stably transfected CHO-K1 cells, CHO-R1) (rat) (UniProt P28646). Briefly: PEG precipitation of solubilised radioligand-receptor complex from CHO-R1 cells.
Experiment [2] concerns the target rat sst2A receptor (expressed in stably transfected CHO-K1 cells, CHO-R2 / CHO-R2A) (rat) (UniProt P30680). The experiment is described as follows: PEG precipitation of solubilised radioligand-receptor complex from CHO-R2 cells.
Experiment [3] deals with sst4 receptor (expressed in stably transfected CHO-K1 cells, CHO-R4). Briefly: PEG precipitation of solubilised radioligand-receptor complex from CHO-R4 cells.
The target of experiment [4] is rat sst1 receptor (expressed in stably transfected CHO-K1 cells, CHO-R1) (rat) (UniProt P28646). Briefly: PEG precipitation of solubilised radioligand-receptor complex from CHO-R1 cells. This is another data set of the same source.
Experiment [5] addresses rat sst2A receptor (expressed in stably transfected CHO-K1 cells, CHO-R2 / CHO-R2A) (rat) (UniProt P30680). Briefly: PEG precipitation of solubilised radioligand-receptor complex from CHO-R2 cells. This is another data set of the same source.
Experiment [6] has as its target rat sst1 receptor (expressed in stably transfected CHO-K1 cells, CHO-R1) (rat) (UniProt P28646). Briefly: dissociation from the receptor complex immunoprecipitated with R1-201 from CHO-R1 cells, no guanine nucleotide.
Experiment [7] deals with rat sst2A receptor (expressed in stably transfected CHO-K1 cells, CHO-R2 / CHO-R2A) (rat) (UniProt P30680). Briefly: PEG precipitation of solubilised radioligand-receptor complex from CHO-R2 cells. The source holds these as a separate data set.
Experiment [8] concerns the target sst4 receptor (expressed in stably transfected CHO-K1 cells, CHO-R4). The experiment is described as follows: PEG precipitation of solubilised radioligand-receptor complex from CHO-R4 cells. The source holds these as a separate data set.
The target is the same in experiment [9]. Described as above. This is another data set of the same source.
Experiment [10] concerns the target sst3 receptor (expressed in stably transfected CHO-K1 cells, CHO-R3). Briefly: PEG precipitation of solubilised radioligand-receptor complex from CHO-R3 cells.
The target in experiment [11] is rat sst1 receptor (expressed in stably transfected CHO-K1 cells, CHO-R1) (rat) (UniProt P28646). Briefly: PEG precipitation of solubilised radioligand-receptor complex from CHO-R1 cells. This is another data set of the same source.
Experiment [12] addresses rat sst2A receptor (expressed in stably transfected CHO-K1 cells, CHO-R2 / CHO-R2A) (rat) (UniProt P30680). Briefly: dissociation from the receptor complex immunoprecipitated with R2-88 from GH4C1 cells, no guanine nucleotide.
Experiment [13] deals with rat sst1 receptor (expressed in stably transfected CHO-K1 cells, CHO-R1) (rat) (UniProt P28646). Briefly: PEG precipitation of solubilised radioligand-receptor complex from CHO-R1 cells. The source holds these as a separate data set.
The target is the same in experiment [14]. The experiment is described as above. This is another data set of the same source.

As to [125I-Tyr11]SRIF (peptide), the Precipitated Complex (cpm), PEG in [1] is 7060 cpm; in [2] it was 16200 cpm; in experiment [3] it was 4980 cpm and 10000 cpm; in experiment [4] it was 7100 cpm; in experiment [5] it was 8490 cpm; in [7] it was 8840 cpm and 6330 cpm. The Precipitated Complex (cpm), PEG in experiment [8] came out at 10000 cpm; in [9], 12500 cpm; in experiment [10] it was 683 cpm; in [11], 8350 cpm; in experiment [13] it was 706 cpm; in experiment [14], 15100 cpm. In addition, the figures for the percent of specifically bound ligand dissociated in experiment [6] and in experiment [12] were 53% and 12%, respectively.
